US20140223606, “COMPOSITIONS AND METHODS COMPRISING SEQUENCES HAVING MEGANUCLEASE ACTIVITY” (PIONEER HI BRED INTERNATIONAL INC, published 2014)
Where a chain is given by its changes, count along the chain named.

What was measured:
MHP14(14) = target: T1, MHP14(14) (artificial); assay: cell_activity; yeast 37 C; 28 C: 1; conditions: tags: NLS, 6xHis
T1 chain: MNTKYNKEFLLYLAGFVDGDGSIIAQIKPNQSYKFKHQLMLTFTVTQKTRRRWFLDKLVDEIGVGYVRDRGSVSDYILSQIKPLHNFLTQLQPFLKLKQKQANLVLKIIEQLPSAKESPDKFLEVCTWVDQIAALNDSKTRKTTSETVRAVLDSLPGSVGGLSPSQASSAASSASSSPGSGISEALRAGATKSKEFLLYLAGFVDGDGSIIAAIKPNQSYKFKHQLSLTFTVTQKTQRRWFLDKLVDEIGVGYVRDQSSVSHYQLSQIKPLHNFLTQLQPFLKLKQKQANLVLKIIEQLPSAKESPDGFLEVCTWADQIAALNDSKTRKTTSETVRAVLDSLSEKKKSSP
Procedure: (§1) A 3 mL culture of selective media (MP Biomedical) was inoculated with a single colony of the yeast screening strain and grown at 30° C. overnight. On the following day, a 50 ml YPD culture (MP Biomedical) was started with 2 ml of the overnight culture and grown at 30° C. overnight. On the following day, the cells were harvested by centrifugation at 4000 rpm. The cells were resuspended in 100 ml ice cold water and centrifuged again. The cells were then washed in 1.2 M sorbitol, followed by treatment with 2 ml of 10 mM Tris pH 8.0, 1 mM EDTA, 100 mM Lithium acetate, 10 mM DTT, 0.6M sorbitol for 30 minutes at 30° C. with shaking. The cells were recovered by centrifugation, washed in 40 ml 1.2M sorbitol and finally resuspended in 250 microliters of 1.2M sorbitol. 50 microliter aliquots were transferred to test tubes on ice. Up to 5 microliters of DNA (100-500 nanograms) were added. The suspension was transferred to a 0.2 cm electroporation cuvette, on ice. Electroporation was performed with a pulse charge at 1.5 kV, 200 ohms, 25 microF (pulse time of 5 milliseconds). 1 mL YPD media (MP Biomedical) was added and the cells were allowed to recover at 30° C. for 1-2 hr. The cells were centrifuged, resuspended in 100 uL 1M sorbitol and plated on selective media lacking leucine and containing 2% galactose. The resulting yeast colonies were incubated at various temperatures ranging from 22 to 37 degrees Celsius for 7-10 days. I-CreI and meganucleases derived from it have maximal activity at or above 37 degrees Celsius. Screening was performed at a range of temperatures from 22 to 37 degrees in order to observe increases in activity at lower temperatures which are relevant to certain biological systems (eg. plant cells, plant cell cultures, etc). At that time the red/white sectoring phenotype, indicative of meganuclease activity was observed. Colonies with increased white sectoring over the parental meganuclease (indicating colonies expressing a meganuclease with increased meganuclease activity), also referred to as “hits” and sometimes completely white, were isolated for further analysis. […]

MHP14(13) = target: T2, MHP14(13) (artificial); assay: cell_activity; yeast 37 C; 28 C: 1; conditions: tags: NLS, 6xHis
T2 chain: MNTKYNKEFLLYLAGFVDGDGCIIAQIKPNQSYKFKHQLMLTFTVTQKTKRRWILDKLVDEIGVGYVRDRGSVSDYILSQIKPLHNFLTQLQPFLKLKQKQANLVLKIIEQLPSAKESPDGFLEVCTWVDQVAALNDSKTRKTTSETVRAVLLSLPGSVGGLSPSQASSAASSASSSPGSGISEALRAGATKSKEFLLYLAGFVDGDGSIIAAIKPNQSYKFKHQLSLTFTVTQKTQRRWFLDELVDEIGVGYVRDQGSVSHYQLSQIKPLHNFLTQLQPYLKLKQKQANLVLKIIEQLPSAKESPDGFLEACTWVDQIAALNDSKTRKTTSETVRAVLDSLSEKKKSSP
Procedure: as §1

MHP14(08) = target: T3, MHP14(08) (artificial); assay: cell_activity; yeast 37 C; 28 C: 1; conditions: tags: NLS, 6xHis
T3 chain: T1 chain with S22C, R50K, F54I, D56L, S258G, G308K
Procedure: as §1

MHP14+(08) = target: T4, MHP14+(08) (artificial); assay: cell_activity; maize; yeast 37 C: 4; conditions: tags: SV40 NLS
T4 chain: T1 chain with S22C, R50K, F54I, D56L, Y66K, S258G, G308K

MHP14(03) = target: T5, MHP14(03) (artificial); assay: cell_activity; yeast 37 C; 28 C: 0.5; conditions: tags: NLS, 6xHis
T5 chain: T2 chain with G19S, K50Q, D56L, V59H, N103V, L153D, A312V, V316A, I319V
Procedure: as §1

B1: MHP14 recognition site (dsDNA)
DNA 1: CAAACAGATTCACGTCAGATTT
DNA 2: AAATCTGACGTGAATCTGTTTG
activity (MHP14(14)): 4 score 0-4 | activity (MHP14(13)): 3.5 score 0-4 | activity (MHP14(08)): 4 score 0-4 | activity (MHP14+(08)): 25 % target site mutation rate | activity (MHP14(03)): 3 score 0-4
